{"source": "paper PMC11193720", "key": {"[1]": {"target": "VZV glycoprotein C gC_(Y322-S523) (varicella zoster virus, Dumas strain)", "sequence (P09256 353-554 limits assumed)": "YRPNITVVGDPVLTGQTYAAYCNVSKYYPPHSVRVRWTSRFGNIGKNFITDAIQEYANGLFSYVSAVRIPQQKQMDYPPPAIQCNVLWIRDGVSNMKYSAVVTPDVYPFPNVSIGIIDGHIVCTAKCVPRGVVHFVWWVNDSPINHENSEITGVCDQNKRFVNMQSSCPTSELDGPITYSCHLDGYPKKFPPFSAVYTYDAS", "experiment": "SPR + other: grating-coupled interferometry (GCI)"}, "[2]": {"target": "VZV glycoprotein C gC_(S147-V531) (varicella zoster virus, Dumas strain)", "sequence (P09256 178-562 limits assumed)": "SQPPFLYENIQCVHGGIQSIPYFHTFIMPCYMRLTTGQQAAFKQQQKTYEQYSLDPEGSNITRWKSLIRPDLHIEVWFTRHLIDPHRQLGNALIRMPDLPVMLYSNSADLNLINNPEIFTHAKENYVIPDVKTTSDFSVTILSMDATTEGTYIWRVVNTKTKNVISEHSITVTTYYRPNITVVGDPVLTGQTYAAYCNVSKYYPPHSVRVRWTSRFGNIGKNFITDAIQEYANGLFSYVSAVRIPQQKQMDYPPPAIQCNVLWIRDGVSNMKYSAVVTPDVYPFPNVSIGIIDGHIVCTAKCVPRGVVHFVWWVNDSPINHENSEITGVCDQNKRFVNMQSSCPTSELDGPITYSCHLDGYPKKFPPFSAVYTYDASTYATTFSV", "experiment": "SPR + other: grating-coupled interferometry (GCI)"}, "[3]": {"target": "VZV glycoprotein C gC_(Y419-S523) (varicella zoster virus, Dumas strain)", "sequence (P09256 450-554 limits assumed)": "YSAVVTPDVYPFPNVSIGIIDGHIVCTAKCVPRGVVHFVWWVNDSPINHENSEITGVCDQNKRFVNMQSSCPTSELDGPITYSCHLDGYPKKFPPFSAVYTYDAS", "experiment": "SPR + other: grating-coupled interferometry (GCI)"}, "[4]": {"target": "VZV glycoprotein C gC_(S147-V531) (varicella zoster virus, Dumas strain)"}, "[5]": {"target": "VZV glycoprotein C construct gC Y419-S523 (varicella zoster virus (Dumas strain))", "sequence (P09256 450-554 limits assumed)": "as above", "experiment": "SPR"}}}
{"substance": "interferon-gamma (IFN-γ) (from UniProt P01579 24-161) (ligand)", "values": [{"measurement": "off-rate of the transient interaction (Kd1), heterogenous ligand fit", "setting": "[1]", "value": 0.04, "unit": "s⁻¹"}, {"measurement": "off-rate of the transient interaction (Kd1), heterogenous ligand fit", "setting": "[2]", "value": 0.04, "unit": "s⁻¹"}, {"measurement": "koff", "setting": "[3]", "value": 0.02, "unit": "s⁻¹"}, {"measurement": "adhesion of Jurkat cells to HaCaT cells stimulated with 5 ng/mL IFN-γ and 300 nM gC construct, fold against IFN-γ alone", "setting": "[4]", "value": 2.7, "unit": "fold"}, {"measurement": "Kd", "setting": "[5]", "value": 0.018, "unit": "µM"}, {"measurement": "koff", "setting": "[5]", "value": 0.0244, "unit": "s⁻¹"}, {"measurement": "kon", "setting": "[5]", "value": "1.35e+06", "unit": "M⁻¹ s⁻¹"}]}
